Measurements as given in the RNAGym collection of RNA variant scans (doi:10.1073/pnas.2313332121).

B1: TPR t1 (parent)
chain: GACCAAUCUGCCCUCAGAGCUCGAGAACAUCUUCGGAUGCAGAGGAGGCAGGCUUCGGUGGCGCGAUAGCGCCAACGUCCUCAACCUCCAAUGCAUCCCACCACAUGAUGAUGCCUGAAGAGCCUUGGUUUUUUG

Variants of: B1
Assay: polymerase ribozyme fitness, log enrichment relative to wild type (log ratio); higher = more active; in vitro selection for triplet polymerase activity
How it was run: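 Mutant libraries were PCR-built and transcribed for each subunit of a heterodimeric triplet polymerase ribozyme and selected for one round in triplicate at −7 °C, frozen, before gel excision of extended constructs and streptavidin-bead capture. Input and output libraries were Illumina-sequenced, keeping genotypes with ≥10 input reads and ≥1 read per output. Fitness is a logarithmic ratio of genotype to wild-type enrichment, in base 2, using inverse-variance-weighted replicate averages.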

Question: Which “polymerase ribozyme fitness (log ratio)” value does the source give for G45U C64U A121G G135A here?
Answer: 0.974

Question: For G45U G52U G61C, which “polymerase ribozyme fitness (log ratio)” value is on record?
Answer: -2.32

Question: With G47C C123A as the variant, how does the “polymerase ribozyme fitness (log ratio)” value read?
Answer: -0.0743

Question: For G45U G69U A119U, which “polymerase ribozyme fitness (log ratio)” value is on record?
Answer: -0.819

Question: Which “polymerase ribozyme fitness (log ratio)” value does the source give for A46C C73G U87C here?
Answer: -1.35

Question: With A46U U125A as the variant, how does the “polymerase ribozyme fitness (log ratio)” value read?
Answer: -1.67

Question: Which “polymerase ribozyme fitness (log ratio)” value does the source give for G45C A119G U131G U132A here?
Answer: 0.0169

Question: For G45U G57U C73G U78A C94A A119G, which “polymerase ribozyme fitness (log ratio)” value is on record?
Answer: -0.559

Question: With G47C C53U C124A as the variant, how does the “polymerase ribozyme fitness (log ratio)” value read?
Answer: 0.271

Question: With G45U G61A C88U A90C G113A as the variant, how does the “polymerase ribozyme fitness (log ratio)” value read?
Answer: -3

Question: For A46U C73U A90C U133A, which “polymerase ribozyme fitness (log ratio)” value is on record?
Answer: -1.35

Question: Which “polymerase ribozyme fitness (log ratio)” value does the source give for G47A C49U here?
Answer: -0.915

Question: Which “polymerase ribozyme fitness (log ratio)” value does the source give for G47C G61U here?
Answer: -2.07

Question: For G47A C72G, which “polymerase ribozyme fitness (log ratio)” value is on record?
Answer: -0.62

Question: With G45A A105G as the variant, how does the “polymerase ribozyme fitness (log ratio)” value read?
Answer: -3.69

Question: For G45A C53A U81C, which “polymerase ribozyme fitness (log ratio)” value is on record?
Answer: -0.267

Question: Which “polymerase ribozyme fitness (log ratio)” value does the source give for G45A G51U here?
Answer: -4.34

Question: For G45A G51A, which “polymerase ribozyme fitness (log ratio)” value is on record?
Answer: -3.66

Question: Which “polymerase ribozyme fitness (log ratio)” value does the source give for G45A C99U here?
Answer: -4.32

Question: With A46G C79A as the variant, how does the “polymerase ribozyme fitness (log ratio)” value read?
Answer: -1.06

Question: With G44U C82G as the variant, how does the “polymerase ribozyme fitness (log ratio)” value read?
Answer: -1.77

Question: Which “polymerase ribozyme fitness (log ratio)” value does the source give for A46U C124A U131C here?
Answer: 1.32

Question: With G47C G58A U112A G117U as the variant, how does the “polymerase ribozyme fitness (log ratio)” value read?
Answer: -3.44

Question: With A46U G58C C70A as the variant, how does the “polymerase ribozyme fitness (log ratio)” value read?
Answer: -2.22

Question: For G45U G58A G77A C82A, which “polymerase ribozyme fitness (log ratio)” value is on record?
Answer: -1.74

Question: For G47C A90U, which “polymerase ribozyme fitness (log ratio)” value is on record?
Answer: -4.3

Question: With G45C U125A as the variant, how does the “polymerase ribozyme fitness (log ratio)” value read?
Answer: -1.86

Question: Which “polymerase ribozyme fitness (log ratio)” value does the source give for G47A G61U here?
Answer: -1.24

Question: With G45U A50U G52U G58A as the variant, how does the “polymerase ribozyme fitness (log ratio)” value read?
Answer: -4.49

Question: Which “polymerase ribozyme fitness (log ratio)” value does the source give for A46U C73U here?
Answer: -1.08

Question: For A46U C73G, which “polymerase ribozyme fitness (log ratio)” value is on record?
Answer: -2.11

Question: With G45U C104A G110U A118C as the variant, how does the “polymerase ribozyme fitness (log ratio)” value read?
Answer: -5.08

Question: Which “polymerase ribozyme fitness (log ratio)” value does the source give for G45A G60U C64U C94U A105U C124A G127A here?
Answer: -5.55

Question: With G45U A105C as the variant, how does the “polymerase ribozyme fitness (log ratio)” value read?
Answer: -4.28

Question: Which “polymerase ribozyme fitness (log ratio)” value does the source give for A46C G52U C88A G110A A118G U126C here?
Answer: -3.39

Question: Which “polymerase ribozyme fitness (log ratio)” value does the source give for G47C G61A G69A A111C U116A here?
Answer: -6.11

Question: With A46C as the variant, how does the “polymerase ribozyme fitness (log ratio)” value read?
Answer: -0.983

Question: Which “polymerase ribozyme fitness (log ratio)” value does the source give for A46G here?
Answer: -0.119

Question: For A46U, which “polymerase ribozyme fitness (log ratio)” value is on record?
Answer: -1.11

Question: For G45U C101A C102U, which “polymerase ribozyme fitness (log ratio)” value is on record?
Answer: -5.42

Question: With A46U C73G G77U C101A C104U as the variant, how does the “polymerase ribozyme fitness (log ratio)” value read?
Answer: -2.96

Question: Which “polymerase ribozyme fitness (log ratio)” value does the source give for A46G G61A C80U C94U here?
Answer: -2.56

Question: For G44U C72U A121U, which “polymerase ribozyme fitness (log ratio)” value is on record?
Answer: 0.777

Question: Which “polymerase ribozyme fitness (log ratio)” value does the source give for G47A U87C U112A here?
Answer: 0.24

Question: Which “polymerase ribozyme fitness (log ratio)” value does the source give for G45A C62U C115U U116C U126A G128C here?
Answer: -5.86

Question: For G45U C72A U87A A121C, which “polymerase ribozyme fitness (log ratio)” value is on record?
Answer: 0.113

Question: Which “polymerase ribozyme fitness (log ratio)” value does the source give for G44U G58C here?
Answer: -0.197

Question: With G45U C56G C73A U116C as the variant, how does the “polymerase ribozyme fitness (log ratio)” value read?
Answer: -4.92

Question: With G47C A95G U133A as the variant, how does the “polymerase ribozyme fitness (log ratio)” value read?
Answer: -2.16

Question: For G47C G71C G117U, which “polymerase ribozyme fitness (log ratio)” value is on record?
Answer: -4.58

Question: For G47A G51C G63U C115A G120U U131G, which “polymerase ribozyme fitness (log ratio)” value is on record?
Answer: -4.36

Question: With G45C G69A U87C U130C as the variant, how does the “polymerase ribozyme fitness (log ratio)” value read?
Answer: -2.8

Question: With G45U A90C A105G U106A U130G U131A as the variant, how does the “polymerase ribozyme fitness (log ratio)” value read?
Answer: -2.74

Question: For G47C C70U U78A, which “polymerase ribozyme fitness (log ratio)” value is on record?
Answer: -1.82

Question: Which “polymerase ribozyme fitness (log ratio)” value does the source give for A46U C114G here?
Answer: -3.78

Question: For G47C G77U U116G, which “polymerase ribozyme fitness (log ratio)” value is on record?
Answer: -3.46

Question: With G47A C85A as the variant, how does the “polymerase ribozyme fitness (log ratio)” value read?
Answer: -2.48

Question: Which “polymerase ribozyme fitness (log ratio)” value does the source give for G44U C114G here?
Answer: -3.66

Question: For A46C C62U U106G, which “polymerase ribozyme fitness (log ratio)” value is on record?
Answer: -2.88

Question: For A46U C101A U130G, which “polymerase ribozyme fitness (log ratio)” value is on record?
Answer: -2.84

Question: Which “polymerase ribozyme fitness (log ratio)” value does the source give for A46U G48A C104U here?
Answer: -1.94

Question: For A46G C56A U133G, which “polymerase ribozyme fitness (log ratio)” value is on record?
Answer: -0.786

Question: Which “polymerase ribozyme fitness (log ratio)” value does the source give for G47C G52U A74G U96A here?
Answer: -4.89

Question: Which “polymerase ribozyme fitness (log ratio)” value does the source give for G47A C56A G113U C114A A121G here?
Answer: -2.45

Question: Which “polymerase ribozyme fitness (log ratio)” value does the source give for G47A C62G C72U here?
Answer: -4.13

Question: With A46G G61A as the variant, how does the “polymerase ribozyme fitness (log ratio)” value read?
Answer: 0.179

Question: Which “polymerase ribozyme fitness (log ratio)” value does the source give for G45C G60C U129A here?
Answer: -2.68

Question: With A46C C56A C73A A91U C97U as the variant, how does the “polymerase ribozyme fitness (log ratio)” value read?
Answer: -4.49

Question: Which “polymerase ribozyme fitness (log ratio)” value does the source give for G47A G120C here?
Answer: 0.156

Question: Which “polymerase ribozyme fitness (log ratio)” value does the source give for G45C A46U here?
Answer: -2.34

Question: For A46G A50C C85U A90G, which “polymerase ribozyme fitness (log ratio)” value is on record?
Answer: -1.11

Question: Which “polymerase ribozyme fitness (log ratio)” value does the source give for A46U C56U here?
Answer: -0.82

Question: Which “polymerase ribozyme fitness (log ratio)” value does the source give for A46C G60U here?
Answer: -0.736

Question: Which “polymerase ribozyme fitness (log ratio)” value does the source give for G44U C124A here?
Answer: 1.15

Question: With G47A U55A G60U A90U U92A as the variant, how does the “polymerase ribozyme fitness (log ratio)” value read?
Answer: -2.67

Question: Which “polymerase ribozyme fitness (log ratio)” value does the source give for G45A G69U A103C here?
Answer: -2.35

Question: For G45C C73U, which “polymerase ribozyme fitness (log ratio)” value is on record?
Answer: -0.881

Question: Which “polymerase ribozyme fitness (log ratio)” value does the source give for G47C G71U here?
Answer: -1.65

Question: For A46G G61C G69U C97A A111U, which “polymerase ribozyme fitness (log ratio)” value is on record?
Answer: -5.77

Question: Which “polymerase ribozyme fitness (log ratio)” value does the source give for A46C G47A C53A U78C here?
Answer: -1.4

Question: With G45U G77U U132C as the variant, how does the “polymerase ribozyme fitness (log ratio)” value read?
Answer: -1.59

Question: With A46U G63U U78A A90U as the variant, how does the “polymerase ribozyme fitness (log ratio)” value read?
Answer: -3.56

Question: With G47A U54C U59A C94G A118C U130C as the variant, how does the “polymerase ribozyme fitness (log ratio)” value read?
Answer: -5.44

Question: Which “polymerase ribozyme fitness (log ratio)” value does the source give for G45U C82U here?
Answer: -1.52
